From patent publication US20250076311A1 (Chugai, published 2025)

T1: soluble mouse FcγRII, His-tagged (mouse, UniProt P08101 30-210, limits assumed)
T1 construct: Captured on the chip through an anti-His antibody
T1 sequence (looked up): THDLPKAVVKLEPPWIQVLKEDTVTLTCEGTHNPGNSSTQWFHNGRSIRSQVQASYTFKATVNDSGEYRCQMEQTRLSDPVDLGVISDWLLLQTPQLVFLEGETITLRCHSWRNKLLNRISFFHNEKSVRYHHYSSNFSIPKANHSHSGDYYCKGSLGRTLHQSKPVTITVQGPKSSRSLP

T2: human FcγRIIb constitutively expressed on MDCK cells (human, UniProt P31994 43-310)
T2 sequence (looked up): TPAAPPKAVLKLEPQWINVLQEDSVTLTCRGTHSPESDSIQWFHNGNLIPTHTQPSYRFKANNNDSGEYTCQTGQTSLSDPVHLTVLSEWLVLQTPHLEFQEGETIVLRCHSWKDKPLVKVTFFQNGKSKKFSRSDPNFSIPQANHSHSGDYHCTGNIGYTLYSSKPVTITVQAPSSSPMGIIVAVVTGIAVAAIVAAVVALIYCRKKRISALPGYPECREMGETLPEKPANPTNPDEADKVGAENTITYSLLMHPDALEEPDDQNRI


Tests used:
[1] = molecular target: T1, soluble mouse FcγRII, His-tagged; test: SPR, mouse FcγRII captured via His-tag, antigen-antibody complex injected, pH 7.4, 25 C
Procedure: Regarding the produced Fc region variant-containing antibodies, binding assays between soluble mouse FcγRII and antigen-antibody complexes were performed using BIACORE® T200 (GE Healthcare). Soluble mouse FcγRII was produced in the form of a His-tagged molecule by a method known to those skilled in the art. An appropriate amount of an anti-His antibody was fixed onto Sensor chip CM5 (GE Healthcare) by the amine coupling method using a His capture kit (GE Healthcare) to capture mouse FcγRII. Next, an antibody-antigen complex and a running buffer (as a reference solution) were injected, and interaction was allowed to take place with the mouse FcγRII captured onto the sensor chip. 20 mM N-(2-Acetamido)-2-aminoethanesulfonic acid, 150 mM NaCl, 1.2 mM CaCl₂), and 0.05% (w/v) TWEEN® 20 at pH7.4 was used as the running buffer, and the respective buffer was also used to dilute the soluble mouse FcγRII. To regenerate the sensor chip, 10 mM glycine-HCl at pH1.5 was used. All measurements were carried out at 25° C. […] To calculate the parameters, the BIACORE® T100 Evaluation Software (GE Healthcare) was used.

[2] = molecular target: T2, human FcγRIIb constitutively expressed …; test: cell-based or functional assay

Binder	biacore IC binding (relative, SG1 = 1.00) [1]	celluar uptake (labelled human latent myostatin taken up as antigen-antibody complex) [2]
MS1032LO06-P1375m (antibody, human IgG1, kappa, name in EU numbering, also called M103205H795-P1375m; copies: 2 + 2) heavy: not shown light: DIVMTQSPATLSLSPGERATLSCTSSQSVYHANWLSWFQQKPGQPPKLLIYWASTLAYGVPSRFSGSGSGTDFTLTISSLQPEDAATYYCAGGYGGGRYAFGQGTKVEIKRTVAAPSVFIFPPSDEQLKSGTASVVCLLNNFYPREAKVQWKVDNALQSGNSQESVTEQDSKDSTYSLSSTLTLSKADYEKHKVYACEVTHQGLSSPVTKSFNRGEC	1.21 relative to SG1	3.43 relative to SG1 = 1.00
M103205H795-P1492m/M103202L889-SK1 (antibody, human IgG1, kappa, name in EU numbering, copies: 2 + 2) heavy: not shown light: DIVMTQSPATLSLSPGERATLSCTSSQSVYHANWLSWFQQKPGQPPKLLIYWASTLAYGVPSRFSGSGSGTDFTLTISSLQPEDAATYYCAGGYGGGRYAFGQGTKVEIKRTVAAPSVFIFPPSDEQLKSGTASVVCLLNNFYPREAKVQWKVDNALQSGNSQESVTEQDSKDSTYSLSSTLTLSKADYEKHKVYACEVTHQGLSSPVTKSFNRGEC	0.88 relative to SG1	1.13 relative to SG1 = 1.00
M103205H795-P1490m/M103202L889-SK1 (antibody, human IgG1, kappa, name in EU numbering, copies: 2 + 2) heavy: not shown light: DIVMTQSPATLSLSPGERATLSCTSSQSVYHANWLSWFQQKPGQPPKLLIYWASTLAYGVPSRFSGSGSGTDFTLTISSLQPEDAATYYCAGGYGGGRYAFGQGTKVEIKRTVAAPSVFIFPPSDEQLKSGTASVVCLLNNFYPREAKVQWKVDNALQSGNSQESVTEQDSKDSTYSLSSTLTLSKADYEKHKVYACEVTHQGLSSPVTKSFNRGEC	1.28 relative to SG1	1.33 relative to SG1 = 1.00
M103205H795-P1495m/M103202L889-SK1 (antibody, human IgG1, kappa, name in EU numbering, copies: 2 + 2) heavy: not shown light: DIVMTQSPATLSLSPGERATLSCTSSQSVYHANWLSWFQQKPGQPPKLLIYWASTLAYGVPSRFSGSGSGTDFTLTISSLQPEDAATYYCAGGYGGGRYAFGQGTKVEIKRTVAAPSVFIFPPSDEQLKSGTASVVCLLNNFYPREAKVQWKVDNALQSGNSQESVTEQDSKDSTYSLSSTLTLSKADYEKHKVYACEVTHQGLSSPVTKSFNRGEC	1.3 relative to SG1	1.76 relative to SG1 = 1.00
M103205H795-P1488m/M103202L889-SK1 (antibody, human IgG1, kappa, name in EU numbering, copies: 2 + 2) heavy: not shown light: DIVMTQSPATLSLSPGERATLSCTSSQSVYHANWLSWFQQKPGQPPKLLIYWASTLAYGVPSRFSGSGSGTDFTLTISSLQPEDAATYYCAGGYGGGRYAFGQGTKVEIKRTVAAPSVFIFPPSDEQLKSGTASVVCLLNNFYPREAKVQWKVDNALQSGNSQESVTEQDSKDSTYSLSSTLTLSKADYEKHKVYACEVTHQGLSSPVTKSFNRGEC	1.43 relative to SG1	1.45 relative to SG1 = 1.00
M103205H795-P1493m/M103202L889-SK1 (antibody, human IgG1, kappa, name in EU numbering, copies: 2 + 2) heavy: not shown light: DIVMTQSPATLSLSPGERATLSCTSSQSVYHANWLSWFQQKPGQPPKLLIYWASTLAYGVPSRFSGSGSGTDFTLTISSLQPEDAATYYCAGGYGGGRYAFGQGTKVEIKRTVAAPSVFIFPPSDEQLKSGTASVVCLLNNFYPREAKVQWKVDNALQSGNSQESVTEQDSKDSTYSLSSTLTLSKADYEKHKVYACEVTHQGLSSPVTKSFNRGEC	1.1 relative to SG1	0.99 relative to SG1 = 1.00
M103205H795-P1486m/M103202L889-SK1 (antibody, human IgG1, kappa, name in EU numbering, copies: 2 + 2) heavy: not shown light: DIVMTQSPATLSLSPGERATLSCTSSQSVYHANWLSWFQQKPGQPPKLLIYWASTLAYGVPSRFSGSGSGTDFTLTISSLQPEDAATYYCAGGYGGGRYAFGQGTKVEIKRTVAAPSVFIFPPSDEQLKSGTASVVCLLNNFYPREAKVQWKVDNALQSGNSQESVTEQDSKDSTYSLSSTLTLSKADYEKHKVYACEVTHQGLSSPVTKSFNRGEC	1.2 relative to SG1	1.52 relative to SG1 = 1.00
M103205H795-P1485m/M103202L889-SK1 (antibody, human IgG1, kappa, name in EU numbering, copies: 2 + 2) heavy: not shown light: DIVMTQSPATLSLSPGERATLSCTSSQSVYHANWLSWFQQKPGQPPKLLIYWASTLAYGVPSRFSGSGSGTDFTLTISSLQPEDAATYYCAGGYGGGRYAFGQGTKVEIKRTVAAPSVFIFPPSDEQLKSGTASVVCLLNNFYPREAKVQWKVDNALQSGNSQESVTEQDSKDSTYSLSSTLTLSKADYEKHKVYACEVTHQGLSSPVTKSFNRGEC	1.29 relative to SG1	1.88 relative to SG1 = 1.00
M103205H795-P1489m/M103202L889-SK1 (antibody, human IgG1, kappa, name in EU numbering, copies: 2 + 2) heavy: not shown light: DIVMTQSPATLSLSPGERATLSCTSSQSVYHANWLSWFQQKPGQPPKLLIYWASTLAYGVPSRFSGSGSGTDFTLTISSLQPEDAATYYCAGGYGGGRYAFGQGTKVEIKRTVAAPSVFIFPPSDEQLKSGTASVVCLLNNFYPREAKVQWKVDNALQSGNSQESVTEQDSKDSTYSLSSTLTLSKADYEKHKVYACEVTHQGLSSPVTKSFNRGEC	1.24 relative to SG1	1.68 relative to SG1 = 1.00
M103205H795-P1484m/M103202L889-SK1 (antibody, human IgG1, kappa, name in EU numbering, copies: 2 + 2) heavy: not shown light: DIVMTQSPATLSLSPGERATLSCTSSQSVYHANWLSWFQQKPGQPPKLLIYWASTLAYGVPSRFSGSGSGTDFTLTISSLQPEDAATYYCAGGYGGGRYAFGQGTKVEIKRTVAAPSVFIFPPSDEQLKSGTASVVCLLNNFYPREAKVQWKVDNALQSGNSQESVTEQDSKDSTYSLSSTLTLSKADYEKHKVYACEVTHQGLSSPVTKSFNRGEC	1.33 relative to SG1	0 relative to SG1 = 1.00
M103205H795-P1487m/M103202L889-SK1 (antibody, human IgG1, kappa, name in EU numbering, copies: 2 + 2) heavy: not shown light: DIVMTQSPATLSLSPGERATLSCTSSQSVYHANWLSWFQQKPGQPPKLLIYWASTLAYGVPSRFSGSGSGTDFTLTISSLQPEDAATYYCAGGYGGGRYAFGQGTKVEIKRTVAAPSVFIFPPSDEQLKSGTASVVCLLNNFYPREAKVQWKVDNALQSGNSQESVTEQDSKDSTYSLSSTLTLSKADYEKHKVYACEVTHQGLSSPVTKSFNRGEC	1.46 relative to SG1	1.23 relative to SG1 = 1.00
M103205H795-P1496m/M103202L889-SK1 (antibody, human IgG1, kappa, name in EU numbering, copies: 2 + 2) heavy: not shown light: DIVMTQSPATLSLSPGERATLSCTSSQSVYHANWLSWFQQKPGQPPKLLIYWASTLAYGVPSRFSGSGSGTDFTLTISSLQPEDAATYYCAGGYGGGRYAFGQGTKVEIKRTVAAPSVFIFPPSDEQLKSGTASVVCLLNNFYPREAKVQWKVDNALQSGNSQESVTEQDSKDSTYSLSSTLTLSKADYEKHKVYACEVTHQGLSSPVTKSFNRGEC	1.28 relative to SG1	1.69 relative to SG1 = 1.00
M103205H795-P1494m/M103202L889-SK1 (antibody, human IgG1, kappa, name in EU numbering, copies: 2 + 2) heavy: not shown light: DIVMTQSPATLSLSPGERATLSCTSSQSVYHANWLSWFQQKPGQPPKLLIYWASTLAYGVPSRFSGSGSGTDFTLTISSLQPEDAATYYCAGGYGGGRYAFGQGTKVEIKRTVAAPSVFIFPPSDEQLKSGTASVVCLLNNFYPREAKVQWKVDNALQSGNSQESVTEQDSKDSTYSLSSTLTLSKADYEKHKVYACEVTHQGLSSPVTKSFNRGEC	1.14 relative to SG1	1.12 relative to SG1 = 1.00
M103205H795-P1491m/M103202L889-SK1 (antibody, human IgG1, kappa, name in EU numbering, copies: 2 + 2) heavy: not shown light: DIVMTQSPATLSLSPGERATLSCTSSQSVYHANWLSWFQQKPGQPPKLLIYWASTLAYGVPSRFSGSGSGTDFTLTISSLQPEDAATYYCAGGYGGGRYAFGQGTKVEIKRTVAAPSVFIFPPSDEQLKSGTASVVCLLNNFYPREAKVQWKVDNALQSGNSQESVTEQDSKDSTYSLSSTLTLSKADYEKHKVYACEVTHQGLSSPVTKSFNRGEC	1.05 relative to SG1	1.37 relative to SG1 = 1.00
